What all share (details): other: substrate of Bacillus sphaericus cyclodextrinase; pH 7.5; 40.0 °C
Substrate in data set [1]: OC[C@H]1O[C@@H]2O[C@H]3[C@H](O)[C@@H](O)[C@@H](O[C@H]4[C@H](O)[C@@H](O)[C@@H](O[C@H]5[C@H](O)[C@@H](O)[C@@H](O[C@H]6[C@H](O)[C@@H](O)[C@@H](O[C@H]7[C@H](O)[C@@H](O)[C@@H](O[C@H]8[C@H](O)[C@@H](O)[C@@H](O[C@H]1[C@H](O)[C@H]2O)O[C@@H]8CO)O[C@@H]7CO)O[C@@H]6CO)O[C@@H]5CO)O[C@@H]4CO)O[C@@H]3CO
The data set is described as follows: purified protein, by the assay type.

Substrate in data set [2]: OC[C@H]1O[C@@H]2O[C@H]3[C@H](O)[C@@H](O)[C@@H](O[C@H]4[C@H](O)[C@@H](O)[C@@H](O[C@H]5[C@H](O)[C@@H](O)[C@@H](O[C@H]6[C@H](O)[C@@H](O)[C@@H](O[C@H]7[C@H](O)[C@@H](O)[C@@H](O[C@H]8[C@H](O)[C@@H](O)[C@@H](O[C@H]9[C@H](O)[C@@H](O)[C@@H](O[C@H]1[C@H](O)[C@H]2O)O[C@@H]9CO)O[C@@H]8CO)O[C@@H]7CO)O[C@@H]6CO)O[C@@H]5CO)O[C@@H]4CO)O[C@@H]3CO
The data set is described as follows: purified protein, by the assay type.

Substrate in data set [3]: OC[C@H]1O[C@H](O[C@H]2[C@H](O)[C@@H](O)[C@@H](O[C@H]3[C@H](O)[C@@H](O)[C@@H](O[C@H]4[C@H](O)[C@@H](O)C(O)O[C@@H]4CO)O[C@@H]3CO)O[C@@H]2CO)[C@H](O)[C@@H](O)[C@@H]1O
The data set can be described thus: purified protein, by the assay type.

Substrate in data set [4]: OC[C@H]1O[C@H](O[C@H]2[C@H](O)[C@@H](O)[C@@H](O[C@H]3[C@H](O)[C@@H](O)[C@@H](O[C@H]4[C@H](O)[C@@H](O)[C@@H](O[C@H]5[C@H](O)[C@@H](O)[C@@H](O[C@H]6[C@H](O)[C@@H](O)C(O)O[C@@H]6CO)O[C@@H]5CO)O[C@@H]4CO)O[C@@H]3CO)O[C@@H]2CO)[C@H](O)[C@@H](O)[C@@H]1O
The data set can be described thus: purified protein, by the assay type.

Substrate in data set [5]: OC[C@H]1O[C@@H]2O[C@H]3[C@H](O)[C@@H](O)[C@@H](O[C@H]4[C@H](O)[C@@H](O)[C@@H](O[C@H]5[C@H](O)[C@@H](O)[C@@H](O[C@H]6[C@H](O)[C@@H](O)[C@@H](O[C@H]7[C@H](O)[C@@H](O)[C@@H](O[C@H]1[C@H](O)[C@H]2O)O[C@@H]7CO)O[C@@H]6CO)O[C@@H]5CO)O[C@@H]4CO)O[C@@H]3CO
The data set is described as follows: Reaction rate parameters of the present enzyme for cyclodextrins and maltooligosaccharides. The format is biochemical.

Substrate in data set [6]: OC[C@H]1O[C@H](O[C@H]2[C@H](O)[C@@H](O)[C@@H](O[C@H]3[C@H](O)[C@@H](O)[C@@H](O[C@H]4[C@H](O)[C@@H](O)[C@@H](O[C@H]5[C@H](O)[C@@H](O)C(O)O[C@@H]5CO)O[C@@H]4CO)O[C@@H]3CO)O[C@@H]2CO)[C@H](O)[C@@H](O)[C@@H]1O
Described as above. The format is biochemical.

Substrate in data set [7]: OC[C@H]1O[C@H](O[C@H]2[C@H](O)[C@@H](O)[C@@H](O[C@H]3[C@H](O)[C@@H](O)[C@@H](O[C@H]4[C@H](O)[C@@H](O)[C@@H](O[C@H]5[C@H](O)[C@@H](O)[C@@H](O[C@H]6[C@H](O)[C@@H](O)[C@@H](O[C@H]7[C@H](O)[C@@H](O)C(O)O[C@@H]7CO)O[C@@H]6CO)O[C@@H]5CO)O[C@@H]4CO)O[C@@H]3CO)O[C@@H]2CO)[C@H](O)[C@@H](O)[C@@H]1O
The description is as above. The data set is classed as biochemical.

B1: cyclodextrinase (Lysinibacillus sphaericus) (protein)
chain: MIMLEAVYHRMGQNWSYAYNDSTLHIRIRTKRDNVPRIDLHCGEKYDPEKYKETIPMERMASDGLFDYWQAAVQPRYRRLVYYFALHSDNGDAVYFMEKGFFDQPPKVMYEGLFDFPYLNRQDVHTPPAWVKEAIFYQIFPERFANGDPSNDPEGVQEWGGTPSAGNFFGGDLQGVIDHLDYLSDLGVNALYFNPLFAATTNHKYDTADYMKIDPQFGTNEKLKELVDACHARGMRVLLDAVFNHCGHTFPPFVDVLNNGLNSRYADWFHVREWPLRVVDGIPTYDTFAFEPIMPKLNTGNEEVKAYLLNVGRYWLEEMGLDGWRLDVANEVDHQFWREFRSEIKRINPSAYILGEIMHDSMPWLQGDQFDAVMNYPFTNILLNFFARRLTNAAEFAQAIGTQLAGYPQQVTEVSFNLLGSHDTTRLLTLCSGNVERMKLATLFQLTYQGTPCIYYGDEIGMDGEYDPLNRKCMEWDKSKQNTELLAFFRSMISLRKAHPALRGSGLRFLPVLEHPQLLVYERWDDNERFLIMLNNEDAPVNVVIPAAQPGASWRTVNGEPCAVVEESSIQAALPPYGYAILHAPIAGTAE
notes: is cultured in a medium to yield and accumulate said cyclodextrinase, and this enzyme is collected from the culture; made in house; host or cells: Bacillus sphaericus E-244 (FERM BP-2458), the natural wild-type producer strain; not recombinant
Broadly, the Km is the concentration of substrate that gives half-maximal velocity. On to B1, for which the Km in data set [1] stood at 380 µM; in data set [2] it was 1430 µM; in data set [3], 1540 µM; in data set [4], 1110 µM; in data set [5], 710 µM; in data set [6], 950 µM. The Km in data set [7] was 690 µM.
